Here are results for six molecules from paper PMC9881204, “Robust Covalent Aptamer Strategy Enables Sensitive Detection and Enhanced Inhibition of SARS-CoV-2 Proteins”.

The target in data set [1] is T1, SARS-CoV-2 spike RBD, wild type (SARS-CoV-2 (wild type), UniProt P0DTC2 319-541). As to the kind of experiment: competition with ACE2-coated beads, flow cytometry; 10% FBS, 37 C; SPR: PBS + 5 mM MgCl2, 300 mM NaCl, 400 nM BLib, 2 ug/mL salmon sperm DNA, 25 C; flow cytometry in binding buffer, RT; neutralization in 10% FBS, 37 C; cross-linking in PBS pH 7.4 (SI: HEPES), RT. Particulars: protein: commercial.

For data set [2], the target named is T1, SARS-CoV-2 spike RBD, wild type. As to the kind of experiment: flow cytometry, RBD-coated Ni beads; room temperature; apparent (covalent cross-link); SPR: PBS + 5 mM MgCl2, 300 mM NaCl, 400 nM BLib, 2 ug/mL salmon sperm DNA, 25 C; flow cytometry in binding buffer, RT; neutralization in 10% FBS, 37 C; cross-linking in PBS pH 7.4 (SI: HEPES), RT. Particulars: protein: commercial. On the technique in general: A flow cytometer gives signals particle by particle.

Data set [3] shares this target. Nature of the data set: flow cytometry, RBD-coated Ni beads; room temperature; SPR: PBS + 5 mM MgCl2, 300 mM NaCl, 400 nM BLib, 2 ug/mL salmon sperm DNA, 25 C; flow cytometry in binding buffer, RT; neutralization in 10% FBS, 37 C; cross-linking in PBS pH 7.4 (SI: HEPES), RT. The following applies: protein: commercial.
Data set [4] has as its target T2, SARS-CoV-2 nucleocapsid protein (NP) (SARS-CoV-2, UniProt P0DTC9 1-419). As to the kind of experiment: SPR; Kd value only in Fig 3a; about 10-fold weaker than antibodies; SPR: PBS + 5 mM MgCl2, 300 mM NaCl, 400 nM BLib, 2 ug/mL salmon sperm DNA, 25 C; flow cytometry in binding buffer, RT; neutralization in 10% FBS, 37 C; cross-linking in PBS pH 7.4 (SI: HEPES), RT. The following applies: protein: commercial; tags: His; chain copies: 2; label: 3' biotin.

In data set [5] the target is T2, SARS-CoV-2 nucleocapsid protein (NP). As to the kind of experiment: SPR; value only in Fig 3a; covalent; SPR: PBS + 5 mM MgCl2, 300 mM NaCl, 400 nM BLib, 2 ug/mL salmon sperm DNA, 25 C; flow cytometry in binding buffer, RT; neutralization in 10% FBS, 37 C; cross-linking in PBS pH 7.4 (SI: HEPES), RT. Particulars: protein: commercial; tags: His; chain copies: 2; label: 3' biotin. Background: SPR reads the build-up and loss of mass on a sensor chip optically.

One may read the IC50 as the concentration needed to halve the response being measured. In the case of ATTACCGATGGCTTGTTTGTAATGTAGGGTTCCGTCGGAT (ssDNA, 5' NH2 conjugated to disuccinimidyl suberate (NHS ester)) [NHS-RApt (CRApt)], the half-inhibitory concentration (IC50) in data set [1] is 420 pM. The Kd in data set [2] was found to be 240 pM.
For ATTACCGATGGCTTGTTTGTAATGTAGGGTTCCGTCGGAT (ssDNA) [RApt], the Kd in data set [3] came out at 5910 pM.

B1: B61 (ssDNA)
DNA: GCTGGATGTTGACCTTTACAGATCGGATTCTGTGGGGCGTTAAACTGACACATCCAGCTTTTTTTT
B1: the binding result in data set [4] is “binds”.

B2: NHS-B61 (ssDNA)
DNA: B1 DNA
modifications: 5' NH2 conjugated to disuccinimidyl suberate (NHS ester)
Take B2: in data set [5], the binding result was “binds”.

B3: B15 (ssDNA)
DNA: GCTGGATGTTCATGCTGGCAAAATTCCTTAGGGGCACCGTTACTTTGACACATCCAGCTTTTTTTT
In the case of B3, the binding result in data set [4] is listed as “binds”.

B4: NHS-B15 (ssDNA)
DNA: B3 DNA
modifications: 5' NH2 conjugated to disuccinimidyl suberate (NHS ester)
For B4, the binding result in data set [5] is listed as “binds”.
